{"source": "paper PMC11882963", "about": "(Nature Communications, 2024)", "binders": {"B1": {"name": "P84 (mneP regulatory region) (dsDNA)", "DNA 1": "CCTTTTTAGCATAGCTCCAACTTTTTTTCTGTCACCTTATTTATTAGTAAACAGGAAACAACGTTGCTATAGACCCACTCGAAG", "DNA 2": "CTTCGAGTGGGTCTATAGCAACGTTGTTTCCTGTTTACTAATAAATAAGGTGACAGAAAAAAAGTTGGAGCTATGCTAAAAAGG"}, "B2": {"name": "Bacillus subtilis MntR, wild type (natural protein)", "chain": "MTTPSMEDYIEQIYMLIEEKGYARVSDIAEALAVHPSSVTKMVQKLDKDEYLIYEKYRGLVLTSKGKKIGKRLVYRHELLEQFLRIIGVDEEKIYNDVEGIEHHLSWNSIDRIGDLVQYFEEDDARKKDLKSIQKKTEHHNQ"}, "B3": {"name": "P26 (mneP site 1) (dsDNA)", "DNA 1": "CAACGTTGCTATAGACCCACTCGAAA", "DNA 2": "TTTCGAGTGGGTCTATAGCAACGTTG"}, "B4": {"name": "H26 (mntH operator) (dsDNA)", "DNA 1": "GATAATTTGCCTTAAGGAAACTCTTC", "DNA 2": "GAAGAGTTTCCTTAAGGCAAATTATC"}, "B5": {"name": "C84 (four consensus MntR sites) (dsDNA)", "DNA 1": "CCTTTTTTGCCTTAAGGAAACTTTTTTGCCTTAAGGAAACTTATTTGCCTTAAGGAAACTACTTTGCCTTAAGGAAACTCGAAG", "DNA 2": "CTTCGAGTTTCCTTAAGGCAAAGTAGTTTCCTTAAGGCAAATAAGTTTCCTTAAGGCAAAAAAGTTTCCTTAAGGCAAAAAAGG"}}, "key": {"MntR WT [1]": {"biological_target": "T1, MntR WT (Bacillus subtilis, UniProt P54512 1-142)", "T1 sequence": "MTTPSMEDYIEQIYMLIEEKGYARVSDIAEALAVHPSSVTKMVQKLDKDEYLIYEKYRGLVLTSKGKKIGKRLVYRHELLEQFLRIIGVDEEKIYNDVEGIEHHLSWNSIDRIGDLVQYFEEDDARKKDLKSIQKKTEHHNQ", "experiment": "cryo-EM"}, "MntR D27A [2]": {"biological_target": "T2, MntR D27A (Bacillus subtilis, UniProt P54512 1-142, D27A)", "T2 sequence": "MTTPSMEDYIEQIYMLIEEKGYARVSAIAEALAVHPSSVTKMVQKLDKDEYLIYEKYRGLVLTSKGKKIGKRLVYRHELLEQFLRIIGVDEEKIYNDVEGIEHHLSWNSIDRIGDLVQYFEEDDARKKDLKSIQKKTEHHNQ", "experiment": "mass photometry"}, "mass photometry": {"biological_target": "the molecule itself", "experiment": "mass photometry"}, "MntR Y22A [3]": {"biological_target": "T3, MntR Y22A (Bacillus subtilis, UniProt P54512 1-142, Y22A)", "T3 sequence": "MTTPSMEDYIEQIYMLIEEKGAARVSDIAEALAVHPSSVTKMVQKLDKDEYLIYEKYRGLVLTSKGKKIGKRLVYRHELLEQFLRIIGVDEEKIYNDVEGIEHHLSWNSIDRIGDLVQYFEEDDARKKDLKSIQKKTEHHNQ", "experiment": "FSEC"}, "MntR WT [4]": {"biological_target": "T1, MntR WT", "experiment": "FSEC"}, "MntR D27A [5]": {"biological_target": "T2, MntR D27A", "experiment": "FSEC"}, "MntR WT [6]": {"biological_target": "T1, MntR WT", "experiment": "FSEC", "remark": "listed apart in the source"}, "MntR D27A [7]": {"biological_target": "T2, MntR D27A", "experiment": "mass photometry", "remark": "listed apart in the source"}, "MntR Y22A [8]": {"biological_target": "T3, MntR Y22A", "experiment": "mass photometry"}, "MntR WT [9]": {"biological_target": "T1, MntR WT", "experiment": "mass photometry"}}, "data": [{"binder": "B1", "values": [{"measurement": "binding result", "setting": "MntR WT [1]", "result": "binds"}, {"measurement": "binding result", "setting": "MntR D27A [2]", "result": "binds"}]}, {"binder": "B2", "values": [{"measurement": "stoichiometry N", "setting": "mass photometry", "result": 2}]}, {"binder": "B3", "values": [{"measurement": "binding result", "setting": "MntR Y22A [3]", "result": "no binding"}, {"measurement": "binding result", "setting": "MntR WT [4]", "result": "no binding"}, {"measurement": "binding result", "setting": "MntR D27A [5]", "result": "no binding"}]}, {"binder": "B4", "values": [{"measurement": "binding result", "setting": "MntR Y22A [3]", "result": "binds"}, {"measurement": "binding result", "setting": "MntR D27A [5]", "result": "binds"}, {"measurement": "binding result", "setting": "MntR WT [6]", "result": "binds"}]}, {"binder": "B5", "values": [{"measurement": "binding result", "setting": "MntR D27A [7]", "result": "binds"}, {"measurement": "binding result", "setting": "MntR Y22A [8]", "result": "binds"}, {"measurement": "binding result", "setting": "MntR WT [9]", "result": "binds"}]}]}
